Source: patent publication US20030044400A1, “Composition and method for treating cells” (priority 2001, published 2003)

Assays:
[1] = system: PC-3 induced tumor; experiment: Prostate tumor (PC-3) in immunodeficient mice; type: in vivo, immunodeficient mice (TACN: NH (S)—NuFDF homozygous males); details: for reduction of prostate tumor: immunodeficient mice, 5 mg/30 g body weight, 5 days consecutive ip injection, vs control
Method: Another set of experiments were designed using immunodeficient mice (TACN: NH (S)—NuFDF homozygous males 3-4 wks old). The 2×10^7 PC-3 cells were implanted and allowed to grow for 6 wks. The mice in the control group received 0.5 ml saline intraperitoneally for 5 days and in the treated group received 0.5 ml Fetuin for 5 days.
The mice divided into 5 each group in this study were TACN:NH (S)—NuFDF homozygous males 3-4 weeks old and weighed an average of 22 g at the start of the experiment and 30 g at the termination of the experiment six weeks later. The animals were induced to prostate tumor formation by inoculating 2×10^7 PC-3 cells in 0.1 ml PBS suspension on the upper half of the dorsal thorax of the mouse. The tumor will be allowed to grow for 6 weeks. The mice in the control group will receive 0.1 ml saline intraperitoneally for 5 days and the mice in the treated group will receive 0.02 ml, 0.1 ml and 0.2 ml of Fetuin 10 mg/ml per day for 5 days. Treatment will start the day after tumor inoculation. Tumor will be weighed at the end of the experiment when the mice will be sacrificed for subsequent histopathology. Animals will be monitored daily for signs of tumor and/or any toxic effects from the test material.

[2] = Hematological and Pathological Assessment of Fetuin in Balb/C Mice; type: in vivo
Method: The Balb/C mice weighing 20-30 g at six to eight weeks of age were divided in six animals per group, 3 female and 3 male, in this study. Fetuin is administered IV or IP at dose of 5 mg, 0.5 mg, 0.05 mg and 0.005 mg per 20 gm mouse for 7 days. Because the nutritional supplement has potential beneficial effects on the immune response, potential toxicity is determined by clinical hematological and classical pathological parameters.
Pre-study assessment of highest tolerated dose administration by IV or IP injection. The end-point is the highest non-lethal dose administered by each route. Animals are screened daily for signs of lethality and the total time of observation is seven days.
Clinical and histological assessment of highest tolerated and lessor doses of Fetuin. Seven days prior to the beginning of phase II each animal is bled to determine its background values for hematological and clinical chemistry parameters. The highest tolerated dose and the next lowest, as well as the vehicle are injected in a single injection by the best-tolerated route. After 24 hours the animals are sacrificed. Gross and microscopic pathologic examination are performed on the organs. Hematological, clinical chemistries and clinical pathology tests are performed: (1) Blood Collection and Analysis: Blood samples are collected from each mouse, one at the start of the experiment prior to receiving their injection of Fetuin and the second collected at the time of euthanasia. The samples are collected via retro-orbital sinus bleed, or tail bleed, under anesthesia. (2) Hematology: Approximately 125 ul of whole blood is collected in an EDTA tube at the specified time. The following hematological parameters are determined: White blood cell count (WBC), Red blood cell count (RBC), Hemoglobin (HGB), Hematocrit (HCT), Mean Corpuscular Volume (MCV), Mean Corpuscular Hemoglobin (MCH), Mean Corpuscular Hemoglobin […] (MCHC), Platelet count (PLT), WBC differential count. Whole blood samples for hematology are disposed of one week after analysis. (3) Clinical Chemistry: Approximately 125 ul of whole blood is collected in a tube containing no additives for serum at the specified times. Tests determine the following clinical chemistry parameters: Alanine aminotransferase (ALT) and Aspartate aminotransferase (AST). (4) Collection of Tissue: The following tissues are collected into 10% neutral buffered formalin (NBF): kidney, liver, lung, thymus, reproductive organ, heart, spleen and lymph nodes. Any abnormalities or gross pathology found at necroscopy are recorded for each animal. (5) Histopathology: Histology is done on the tissue samples submitted for each animal. The tissues will be paraffin-embedded, sectioned and stained with hematoxylin and eosin (H&E). A pathology reads the slides for apparent abnormalities.
Clinical and histological assessment of highest tolerated dose of Fetuin administered daily over 14 days. The highest tolerated dose as determined in Phase II and the vehicle is injected daily for fourteen consecutive days by the best-tolerated route. After 24 hours, one-half of the animals are sacrificed. The remainder are sacrificed after 14 days. Gross microscopic pathologic examination are performed on the organs recovered from all animals. (1) Blood collection and analysis: Blood sample is collected from each mouse, one at the start of the experiment prior to receiving their injection of Fetuin and the second collected at the time of euthanasia. The samples are collected via retro-orbital sinus bleed or tail bleed under anesthesia. (2) Hematology: Approximately 125 ul of whole blood is collected in an EDTA tube at the specified time. The following hematology parameters is determined: White blood cell count (WBC), Red blood cell count (RBC), Hemoglobin (HGB), Hematocrit (HCT), Mean Corpuscular Volume (MCV), Mean Corpuscular Hemoglobin (MCH), Mean Corpuscular Hemoglobin […] (MCHC), Platelet count (PLC), WBC differential count. […]

[3] = system: transforming growth factor-beta (TGF); experiment: Binding of transforming growth factor-beta
[4] = immunodeficient mice with PC-3, 0.5 ml Fetuin ip for 5 days, 9 mice

Fetuin: Fetal bovine fetuin purified from fetal bovine serum by modified Spiro method; 60 Kd glycoprotein, homologue of alpha 2-HS glycoprotein
Ave. Mouse Weight (gm) [1, 4]: 30.6 gm
Ave. Tumor Weight (gm) [1, 4]: 0 gm
Tumor Incidence (%) [1, 4]: 0%
reduction of prostate tumor [1]: up to 100%
reduction of prostate tumor ([1]; listed as Fetal fetuin): 100%
Blood glucose levels ([2]; Balb/C mice, 0.005 mg per animal): 13 mg/dL
Blood glucose levels ([2]; Balb/C mice, 0.05 mg Fetuin): 27 mg/dL
Blood glucose levels ([2]; Balb/C mice, 0.5 mg Fetuin): 25 mg/dL
Blood glucose levels ([2]; Balb/C mice, 5 mg Fetuin per animal): 41.6 mg/dL
cholesterol levels elevated compared to the lower doses ([2]; Balb/C mice, 5 mg per mouse, P<0.05): 14%
survival and clinical signs ([2]; Balb/C mice, 5, 0.5, 0.05 and 0.005 mg Fetuin via IP route, 7 days): survived for 7 days without any signs of distress
White Blood Cell (WBC) levels ([2]; Balb/C mice, 24 hrs after injection of various doses, p=0.126): within the normal limits
AST (Aspartate Aminotransferase) level ([2]; Balb/C mice, P=0.306): within the normal limits
ALT (Alanine Aminotransferase) level ([2]; Balb/C mice, P=0.444): within the normal limits
microscopic structure of tissues ([2]; Balb/C mice, all dosage groups): normal in architecture
body weight change ([2]; Balb/C mice, control vs Fetuin treated group): no significant body weight change
Blood Urinary Nitrogen (BUN) levels ([2]; Balb/C mice, highest and lowest dose groups, unrelated to dose): elevated
overall toxicity ([2]; Balb/c mouse): very low toxicity
red blood cell count, white blood cell count and platelet count ([2]; healthy animals, 5-fold increased dose): did not affect
safety by hematological, clinical chemistry and histopathological analysis ([2]; healthy mice, 2.5-5 fold higher dose than effective in cancer-bearing mice): no obvious adverse effect was observed
binding of transforming growth factor-beta (TGF) [3]: high affinity
